# Laboratory results from patent publication US20250002576A1 (FUSION PHARMACEUTICALS, published 2025).
# Positions count from the first letter of the chain named.
# T1: hCLDN18.1 (antigen of the scFv screening) (human, UniProt P56856 28-80)
# T1 construct: ELISA or flow cytometry according to the selection strategy
# T1 sequence (looked up): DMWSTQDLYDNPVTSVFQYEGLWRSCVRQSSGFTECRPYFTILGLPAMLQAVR
# B1: YU574-D03 (antibody, V domains shown)
# VH: not shown
# VL: DIVMTQSPSSVSASVGDRVTITCRASQGISSWLAWYQQKPGKAPKLLIYAASSLQSGVPSRFSGSGSGTDFTLTISSLQPEDFATYYCQQANSFPLTFGGGTKVDIK
# B2: YU577-H07 (antibody, V domains shown)
# VH: not shown
# VL: B1 VL with V3Q, V104L, D105E
# B3: YU575-H03 (antibody, V domains shown)
# VH: not shown
# VL: QSVLTQPPSVSGAPGQRVTISCTGSSSNIGAGYDVHWYQQLPGTAPKLLIYGNSNRPSGVPDRFSGSKSGTSASLAITGLQAEDEADYYCQSYDSSLSGYVFGTGTKLTVL
# B4: YU574-H09 (antibody, V domains shown)
# VH: QVQLVQSGAEVKKPGASVKVSCKASGYTFTSYYMHWVRQAPGQGLEWMGIINPSGGSTSYAQKFQGRVTMTRDTSTSTVYMELSSLRSEDTAVYYCARGGSGFDYWGQGTLVTVSS
# VL: not shown
# B5: YU578-F02 (antibody, V domains shown)
# VH: not shown
# VL: DIVMTQSPSFLSASVGDRVTITCRASQGISSYLAWYQQKPGKAPKLLIYAASTLQSGVPSRFSGSGSGTEFTLTISSLQPEDFATYYCQQLNSYPITFGQGTKLEIK
# B6: YU577-H07 (scFv as screened) (scFv, V domains shown)
# VH: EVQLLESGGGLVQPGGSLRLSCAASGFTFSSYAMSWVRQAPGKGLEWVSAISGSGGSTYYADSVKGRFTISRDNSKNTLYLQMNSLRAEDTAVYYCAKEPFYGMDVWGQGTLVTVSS
# VL: B1 VL with V3Q, V104L, D105E
# B7: YU577-E12 (scFv as screened) (scFv, V domains shown)
# VH: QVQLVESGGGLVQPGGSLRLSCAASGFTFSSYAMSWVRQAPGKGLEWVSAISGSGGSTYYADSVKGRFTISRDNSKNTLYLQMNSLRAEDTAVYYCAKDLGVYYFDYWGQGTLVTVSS
# VL: B5 VL with V15A, A43G, L91V, I96L, Q100P, L104V, E105D
# B8: YU578-D01 (scFv as screened) (scFv, V domains shown)
# VH: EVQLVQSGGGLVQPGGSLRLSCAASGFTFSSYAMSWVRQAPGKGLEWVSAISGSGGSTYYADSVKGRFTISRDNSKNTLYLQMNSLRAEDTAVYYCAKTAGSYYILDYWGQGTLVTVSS
# VL: B1 VL with V3Q, M4L, V11L, S31N, W32Y, Y36F, L46S, R61K, A91Y, F94Y
# B9: YU577-B11 (scFv as screened) (scFv, V domains shown)
# VH: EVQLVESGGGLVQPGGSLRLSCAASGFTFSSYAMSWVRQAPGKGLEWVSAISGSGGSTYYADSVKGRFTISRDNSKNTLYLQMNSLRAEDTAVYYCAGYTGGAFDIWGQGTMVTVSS
# VL: B1 VL with V3Q, V104L, D105E
# B10: YU574-D03 (scFv as screened) (scFv, V domains shown)
# VH: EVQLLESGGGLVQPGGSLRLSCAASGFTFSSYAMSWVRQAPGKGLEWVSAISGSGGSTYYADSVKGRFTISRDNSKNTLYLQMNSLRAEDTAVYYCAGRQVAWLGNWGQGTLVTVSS
# VL: B1 VL
# B11: YU574-E07 (scFv as screened) (scFv, V domains shown)
# VH: QVQLQESGGGVVQPGRSLRLSCAASGFTFSSYGMHWVRQAPGKGLEWVAVISYDGSNKYYADSVKGRFTISRDNSKNTLYLQMNSLRAEDTAVYYCAKDQRGGLYGMDVWGQGTLVTVSS
# VL: B3 VL with V10A, Y100W, T104G
# B12: YU575-H03 (scFv as screened) (scFv, V domains shown)
# VH: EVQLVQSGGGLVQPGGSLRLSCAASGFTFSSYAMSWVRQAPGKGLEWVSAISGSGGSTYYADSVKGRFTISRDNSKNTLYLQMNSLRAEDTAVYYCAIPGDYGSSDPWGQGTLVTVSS
# VL: B3 VL
# B13: YU574-D11 (scFv as screened) (scFv, V domains shown)
# VH: QVQLVQSGGGLVQPGGSLRLSCAASGFTFSSYAMSWVRQAPGKGLEWVSAISGSGGSTYYADSVKGRFTISRDNSKNTLYLQMNSLRAEDTAVYYCAGGANGFDPWGQGTLVTVSS
# VL: B3 VL with Y100L, T104G
# B14: YU574-H09 (scFv as screened) (scFv, V domains shown)
# VH: B4 VH
# VL: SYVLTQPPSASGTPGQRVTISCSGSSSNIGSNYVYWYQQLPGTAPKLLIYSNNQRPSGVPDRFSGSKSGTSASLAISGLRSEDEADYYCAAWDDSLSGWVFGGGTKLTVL
# B15: YU577-E08 (scFv as screened) (scFv, V domains shown)
# VH: QVQLVQSGAEVKKPGASVKVSCKASGYTFTSYYMHWVRQAPGQGLEWMGIINPSGGSTSYAQKFQGRVTMTRDTSTSTVYMELSSLRSEDTAVYYCATRQFDYWGQGTLVTVSS
# VL: QSVLTQPPSVSAAPGQKVTISCSGSSSNIGNNYVSWYQQLPGTAPKLLIYENNKRPSGIPDRFSGSKSGTSATLGITGLQTGDEADYYCGTWDSSLSAAVFGGGTKVTVL
# B16: YU577-B01 (scFv as screened) (scFv, V domains shown)
# VH: EVQLVESGGGVVQPGRSLRLSCAASGFTFSSYGMHWVRQAPGKGLEWVAVISYDGSNKYYADSVKGRFTISRDNSKNTLYLQMNSLRAEDTAVYYCAKDVTYYYDSSGSPDFDYWGQGTLVTVSS
# VL: DIQLTQSPSSLSASVGDRVTITCRASQGISNYLAWFQQKPGKAPKSLIYAASSLQSGVPSKFSGSGSGTDFTLTISSLQPEDFATYYCQQYNSYPYSFGQGTKVEIK
# B17: YU578-F02 (scFv as screened) (scFv, V domains shown)
# VH: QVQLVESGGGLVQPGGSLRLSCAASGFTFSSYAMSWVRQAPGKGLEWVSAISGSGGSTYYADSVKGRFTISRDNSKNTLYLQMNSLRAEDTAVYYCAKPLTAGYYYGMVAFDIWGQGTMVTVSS
# VL: B5 VL
# Biological target: lysozyme
# Assay: non-specific binding ELISA, lysozyme immobilized
# Method: DNA, LPS, lysozyme, and cell lysate were immobilized onto microtiter plates. Testing antibodies were added to the wells and incubated. Bound antibodies were detected via a fluorescently-labeled substrate. The fluorescence intensity was normalized to the signal of a control antibody (trastuzumab). Higher normalized signal correlates to stronger off-target or non-specific binding.
row,normalized signal (fluorescence intensity normalized to trastuzumab),Binder
1,1.1,B1
2,1.3,B2
3,0.9,B3
4,1.3,B4
5,1,B5

# Biological target: T1, hCLDN18.1 (antigen of the scFv …)
# Assay: ELISA or flow cytometry, scFv screening
# Method: A naïve human antibody library was used to select CLDN18.2 antibodies and incubated with CLDN18.2 antigen or CLDN18.2-expressing cells for four rounds of biopanning, following the strategy described in Table 3. Monoclonal antibody clones were selected, produced as scFv antibodies, and screened using ELISA (clones identified from Strategy 1 or 2) or flow cytometry (clones identified from Strategy 3 or 4) to identify clones with hCLDN18.2 affinity and no hCLDN18.1 cross-reactivity. 188 such clones were and subsequently sequenced, yielding 68 unique antibodies. The unique antibodies were further screened using flow cytometry to identify clones with mCLDN18.2 affinity, yielding 50 human/mouse cross-reactive antibody clones.
row,binding result,Binder
1,no binding,B6
2,no binding,B7
3,no binding,B8
4,no binding,B9
5,no binding,B10
6,no binding,B11
7,no binding,B12
8,no binding,B13
9,no binding,B14
10,no binding,B15
11,no binding,B16
12,no binding,B17
